US20240410901A1
Changes are numbered by the printed parent chain. Names and notes keep the numbering of the source.

Columns and labels:
[1] = molecular target: F-actin (G-actin polymerized, filaments stabilized with phalloidin); assay: cosedimentation with 0.5 µM phalloidin-stabilized F-actin, SDS-PAGE of the pellet, hyperbolic fit
[2] = molecular target: actin filaments of D. melanogaster S2 cells (lamellipodial actin ring, patches, filopodia) (D. melanogaster); assay: TIRF imaging of S2 cells before and after blue light
[3] = molecular target: actin filaments of D. melanogaster S2 cells (lamellipodial actin ring, patches, filopodia) (D. melanogaster); assay: TIRF imaging of a fixed S2 cell expressing mCherry-Lifeact stained with Alexa Fluor 488 phalloidin; panel a, lower cell
[4] = molecular target: actin filaments of D. melanogaster S2 cells (lamellipodial actin ring, patches, filopodia) (D. melanogaster); assay: TIRF imaging of a fixed S2 cell expressing mCherry-Lifeact stained with Alexa Fluor 488 phalloidin; panel a, upper cell
[5] = molecular target: actin filaments of D. melanogaster S2 cells (lamellipodial actin ring, patches, filopodia) (D. melanogaster); assay: cell-based or functional assay
[6] = molecular target: actin filaments of D. melanogaster S2 cells (lamellipodial actin ring, patches, filopodia) (D. melanogaster); assay: TIRF images of an S2 cell before and after blue-light excitation, printed in panel b
[7] = molecular target: actin filaments of D. melanogaster S2 cells (lamellipodial actin ring, patches, filopodia) (D. melanogaster); assay: TIRF image of an S2 cell before blue-light excitation, panel a; outer and inner rings hand traced
[8] = molecular target: actin filaments of D. melanogaster S2 cells (lamellipodial actin ring, patches, filopodia) (D. melanogaster); assay: TIRF image of the same S2 cell after blue-light excitation, panel b; outer and inner rings hand traced
[9] = molecular target: actin filaments of D. melanogaster S2 cells (lamellipodial actin ring, patches, filopodia) (D. melanogaster); assay: TIRF imaging of a live S2 cell; actin labeling ratio over time, panel B, recovery after the 2nd blue-light excitation
[10] = molecular target: actin filaments of D. melanogaster S2 cells (lamellipodial actin ring, patches, filopodia) (D. melanogaster); assay: TIRF imaging of a live S2 cell; actin labeling ratio over time, panel B, recovery after the 3rd blue-light excitation
[11] = molecular target: actin filaments of D. melanogaster S2 cells (lamellipodial actin ring, patches, filopodia) (D. melanogaster); assay: TIRF imaging of a live S2 cell; actin labeling ratio over time, panel B, recovery after the 4th blue-light excitation
[12] = molecular target: actin filaments of D. melanogaster S2 cells (lamellipodial actin ring, patches, filopodia) (D. melanogaster); assay: TIRF imaging of a repeatedly excited S2 cell; actin labeling ratio over time, panel f, recovery after the 2nd excitation
[13] = molecular target: actin filaments of D. melanogaster S2 cells (lamellipodial actin ring, patches, filopodia) (D. melanogaster); assay: TIRF imaging of a repeatedly excited S2 cell; actin labeling ratio over time, panel f, recovery after the 3rd excitation
[14] = molecular target: actin filaments of D. melanogaster S2 cells (lamellipodial actin ring, patches, filopodia) (D. melanogaster); assay: TIRF imaging of a repeatedly excited S2 cell; actin labeling ratio over time, panel f, recovery after the 4th excitation
[15] = molecular target: actin filaments of D. melanogaster S2 cells (lamellipodial actin ring, patches, filopodia) (D. melanogaster); assay: TIRF imaging of a repeatedly excited S2 cell; actin labeling ratio over time, panel f, recovery after the 1st excitation (black exponential fit)
[16] = molecular target: actin filaments of D. melanogaster S2 cells (lamellipodial actin ring, patches, filopodia) (D. melanogaster); assay: TIRF imaging of a live S2 cell; actin labeling ratio over time, panel B, recovery after the 1st blue-light excitation (black exponential fit drawn on this one)
[17] = molecular target: actin filaments of D. melanogaster S2 cells (lamellipodial actin ring, patches, filopodia) (D. melanogaster); assay: TIRF imaging of an S2 cell expressing mCherry-LILAC, fixed under blue light and stained with Alexa Fluor 488 phalloidin; panel b, lower cell
[18] = molecular target: actin filaments of D. melanogaster S2 cells (lamellipodial actin ring, patches, filopodia) (D. melanogaster); assay: TIRF imaging of an S2 cell expressing mCherry-LILAC, fixed under blue light and stained with Alexa Fluor 488 phalloidin; panel b, upper cell

## mCherry-Lifeact, expressed in E. coli and purified (6×His-mCherry-TEV-Lifeact from the pET21-mCherry-Lifeact vector) (from UniProt Q08641 1-17)
[1]
  Kd: 3.9 µM

## mCherry-Lifeact expressed in Drosophila S2 cells (pMT-mCherry-Lifeact vector) (from UniProt Q08641 1-17)
[2]
  switching ratio (fold change of the actin labeling ratio, post/pre-excitation): 1
[3]
  r (Pearson's correlation coefficient with the phalloidin image): 0.89
[4]
  r (Pearson's correlation coefficient with the phalloidin image): 0.83

B1: mCherry-LILAC I539E, expressed in E. coli and purified (6×His-mCherry-TEV-LILAC with I539E, pET21) (designed binder, not shown: large carriers; small tags and cut ends)
chain: HHHHHHGEFLATTLERIEKNFVITDPRLPDNPIIFASDSFLQLTEYSREEILGRNCRFLQGPETDRATVRKIRDAIDNQTEVTVQLINYTKSGKKFWNLFHLQPMRDQKGDVQYFIGVQLDGTEHVRDAAEREAVMLAKKTAEEEDEAAMGVADLIKKFESISKEE
[1]
  Kd: 3.4 µM

B2: mCherry-LILAC expressed in Drosophila S2 cells (pMT vector) (designed binder, not shown: large carriers)
chain: GGSGGSGGSGEFLATTLERIEKNFVITDPRLPDNPIIFASDSFLQLTEYSREEILGRNCRFLQGPETDRATVRKIRDAIDNQTEVTVQLINYTKSGKKFWNLFHLQPMRDQKGDVQYFIGVQLDGTEHVRDAAEREAVMLAKKTAEEIDEAAMGVADLIKKFESISKEE
[5]
  dark state recovery time constant, from actin labeling ratio traces: 63 s
[2]
  switching ratio (fold change of the actin labeling ratio, post/pre-excitation): 1.6
[6]
  ASR (actin switching ratio, ALR post / ALR pre): 2.02
[7]
  ALR (actin labeling ratio, intensity outer / intensity inner): 0.39
[8]
  ALR (actin labeling ratio, intensity outer / intensity inner): 0.79
[9]
  τ (time constant of the decay of the actin labeling ratio after excitation): 73 s
[10]
  τ (time constant of the decay of the actin labeling ratio after excitation): 61 s
[11]
  τ (time constant of the decay of the actin labeling ratio after excitation): 59 s
[12]
  τ (time constant of the decay of the actin labeling ratio after excitation): 73 s
[13]
  τ (time constant of the decay of the actin labeling ratio after excitation): 61 s
[14]
  τ (time constant of the decay of the actin labeling ratio after excitation): 59 s
[15]
  τ (time constant of the decay of the actin labeling ratio after excitation): 71 s
[16]
  τ (time constant of the decay of the actin labeling ratio after excitation): 71 s
[17]
  r (Pearson's correlation coefficient with the phalloidin image): 0.62
[18]
  r (Pearson's correlation coefficient with the phalloidin image): 0.6

B3: mCherry-LILAC I539E expressed in Drosophila S2 cells (pMT vector) (designed binder, not shown: large carriers)
chain: B2 chain with I148E
[2]
  switching ratio (fold change of the actin labeling ratio, post/pre-excitation): 1

B4: mCherry-LILAC T406A/T407A expressed in Drosophila S2 cells (pMT vector) (designed binder, not shown: large carriers)
chain: B2 chain with T15A, T16A
[5]
  dark state recovery time constant, from actin labeling ratio traces: 50 s
